# Source: patent US20210301025A1 (published 2021)
# Residue numbers refer to the chain shown, from its start. Where two headings read alike, the source gives them in different places.
# B1: ECB95 (designed binder, not shown: small tags and cut ends)
# chain: MLPAPKNLVVSEVTEDSARLSWDDPWAFYESFLIQYQESEKVGEAIVLTVPGSERSYDLTGLKPGTEYTVSIYGVHNVYKDTNIRGLPLSAIFTTAPAPAPAPAPLPAPKNLVVSRVTEDSARLSWTAPDAAFDSFWIRYFEFVGSGEAIVLTVPGSERSYDLTGLKPGTEYVVNILGVKGGSISPPLSAIFTT
# notes: Bispecific: P54AR4-83v22, (AP)5, P114AR9P121-A6v2
# B2: ECB94 (designed binder, not shown: small tags and cut ends)
# chain: B1 chain with V144L, S183K
# notes: Bispecific: P54AR4-83v22, (AP)5, P114AR7P94-A3v22
# B3: ECB97 (designed binder, not shown: small tags and cut ends)
# chain: B1 chain with V144L, G178S
# notes: Bispecific: P54AR4-83v22, (AP)5, P114AR7P95-C5v2
# B4: ECB96 (designed binder, not shown: small tags and cut ends)
# chain: B1 chain with G145S, S146K, E148D
# notes: Bispecific: P54AR4-83v22, (AP)5, P114AR9P122-A7v2
# B5: ECB15 (designed binder, not shown: small tags and cut ends)
# chain: B1 chain with I84M, V144L, L177M, S183K
# B6: P114AR7P95-D3 (designed binder, not shown: small tags and cut ends)
# chain: LPAPKNLVVSRVTEDSARLSWTAPDAAFDSFWIRYFEFLGSGEAIVLTVPGSERSYDLTGLKPGTEYVVNIMGVKGGSISYPLSAIFTT
# B7: P114AR7P92-F6 (designed binder, not shown: small tags and cut ends)
# chain: B6 chain with M72L, S78G, I79L, Y81V
# B8: P114AR7P92-F3 (designed binder, not shown: small tags and cut ends)
# chain: B6 chain with V68I, Y81H
# B9: P114AR7P93-D11 (designed binder, not shown: small tags and cut ends)
# chain: B6 chain with N70G, M72N, S78Y
# B10: P114AR7P94-E5 (designed binder, not shown: small tags and cut ends)
# chain: B6 chain with V68A, S78R, I79V, Y81V
# B11: P114AR7P93-G8 (designed binder, not shown: small tags and cut ends)
# chain: B6 chain with G60D, V68G, N70T, M72N, S78R, I79V, Y81T
# B12: P114AR7P92-H5 (designed binder, not shown: small tags and cut ends)
# chain: B6 chain with F36L, G40L, S41G, N70Q, S78T, I79V, Y81P
# B13: P114AR7P93-H9 (designed binder, not shown: small tags and cut ends)
# chain: B6 chain with N70Q, M72I, S78H, Y81L
# B14: P114AR7P95-E3 (designed binder, not shown: small tags and cut ends)
# chain: B6 chain with N70Q, S78T, I79V, Y81P
# B15: P114AR7P95-B9 (designed binder, not shown: small tags and cut ends)
# chain: B6 chain with N70Q, M72L, Y81V
# B16: P114AR7P95-H8 (designed binder, not shown: small tags and cut ends)
# chain: B6 chain with L39V, G40S, S41K, Y81P
# B17: P114AR5P75-E9 (designed binder, not shown: small tags and cut ends)
# chain: B6 chain with W32F, F36D, G40R, V68W, N70T, M72L, S78L, I79V, Y81T
# B18: P114AR7P95-F10 (designed binder, not shown: small tags and cut ends)
# chain: B6 chain with L39T, G40T, S41A, Y81P
# B19: P114AR7P95-G7 (designed binder, not shown: small tags and cut ends)
# chain: B6 chain with F38L, G40S, S41T, Y81P
# B20: P114AR7P94-A3 (designed binder, not shown: small tags and cut ends)
# chain: B6 chain with S78K, Y81P
# B21: P114AR7P95-D4 (designed binder, not shown: small tags and cut ends)
# chain: B6 chain with N70Q, M72L, S78Y, Y81I
# B22: P114AR7P92-G8 (designed binder, not shown: small tags and cut ends)
# chain: B6 chain with W32V, N70Q, M72L, S78Y, Y81I
# Experiments:
# [1] = target: human EGFR on cells (A431, NCI-H292, NCI-H322, NCI-H441) (human, UniProt P00533 25-1210); assay: cell-based or functional assay
# [2] = target: T1, human c-Met on cells (NCI-H441, NCI-H292, U87-MG) (human, UniProt P08581 25-1390); assay: cell-based or functional assay
# [3] = target: T2, recombinant human extracellular domain of EGFR fused to an IgG1 Fc (human, UniProt P00533 25-645); assay: SPR (ProteOn) per Example 3
# T2 construct: Bought (R&D Systems); captured on anti-human Fc IgG for SPR; also called EGFR-Fc
# Text: (§1) Select EGFR/c-Met molecules were characterized for their affinity to both EGFR and c-Met, their ability to inhibit EGFR and c-Met autophosphorylation, and their effect on proliferation of HGF cells. Binding affinity of the bispecific EGFR/c-Met molecules to recombinant EGFR and/or c-Met extracellular domain was further by surface Plasmon resonance methods using a Proteon Instrument (BioRad) according to protocol described in Example 3.
# [4] = target: T3, recombinant c-Met extracellular domain (human, UniProt P08581 16-932); assay: SPR (ProteOn) per Example 3
# T3 construct: Construct used for SPR is not described further (may be the Fc chimera, as the protocol captures on anti-human Fc)
# Text: as §1
# [5] = target: T1, human c-Met on cells (NCI-H441, …); assay: cell-based or functional assay; remark: listed apart in the source
# [6] = target: T3, recombinant c-Met extracellular domain; assay: SPR kinetic analysis as in Example 2
# [7] = target: T4, Recombinant human c-Met Fc chimera (human, UniProt P08581 16-932); assay: competition with biotinylated HGF on plate-coated c-Met-Fc
# T4 construct: whole c-Met entry named; also called c-Met-Fc fusion protein
# [8] = target: T1, human c-Met on cells (NCI-H441, …); assay: NCI-H441 cell binding, anti-His fluorescence
# Description: Purified FN3 domains (50 μL/well; 0 to 1000 nM) were added to the cells for 1 hour at 4° C. in duplicate plates. Supernatant was removed and cells were washed three times with FACS stain buffer (150 μL/well, BD Biosciences, cat #554657). Cells were incubated with biotinylated-anti HIS antibody (diluted 1:160 in FACS stain buffer, 50 μL/well, R&D Systems, cat # BAM050) for 30 minutes at 4° C. Cells were washed three times with FACS stain buffer (150 μL/well), after which wells were incubated with anti mouse IgG1-Alexa 488 conjugated antibody (diluted 1:80 in FACS stain buffer, 50 μL/well, Life Technologies, cat # A21121) for 30 minutes at 4° C. Cells were washed three times with FACS stain buffer (150 μL/well) and left in FACS stain buffer (50 μL/well). Total fluorescence was determined using an Acumen eX3 reader. Data were plotted as raw fluorescence signal against the logarithm of the FN3 domain molar concentration and fitted to a sigmoidal dose-response curve with variable slope using GraphPad Prism 4 (GraphPad Software) to calculate EC₅₀ values.
Binder,pEGFR inhibition in H292 cells IC50 [1],pMet inhibition in H441 cells IC50 [2],Kd [3],Kd [4],pMet inhibition in H441 cells IC50 [5],Kd [6],IC50 [7],Inhibition of proliferation of U87-MG cells IC50 [5],EC50 [8]
B1,13.6 nM,179 nM,1.1 nM,6.2 nM,,,,,
B2,5.1 nM,53.8 nM,1 nM,4.3 nM,,,,,
B3,16.6 nM,24.2 nM,1.3 nM,1.7 nM,,,,,
B4,24.7 nM,835 nM,1.6 nM,22.1 nM,,,,,
B5,4.2 nM,,0.2 nM,2.6 nM,,,,,
B6,,,,,4.6 nM,0.3 nM,0.2 nM,,
B7,,,,,165 nM,3.1 nM,2.2 nM,350 nM,4.9 nM
B8,,,,,8.3 nM,0.4 nM,0.2 nM,2.7 nM,
B9,,,,,16 nM,,,14.4 nM,2.3 nM
B10,,,,,124 nM,4.2 nM,0.7 nM,196 nM,3.4 nM
B11,,,,,460 nM,6.9 nM,1 nM,104 nM,3.8 nM
B12,,,,,766 nM,11.6 nM,,672 nM,22 nM
B13,,,,,288 nM,3.3 nM,2.9 nM,270 nM,12.9 nM
B14,,,,,205 nM,,,209 nM,3.2 nM
B15,,,,,9.8 nM,,0.3 nM,17.4 nM,
B16,,,,,210 nM,3.7 nM,,281 nM,4.1 nM
B17,,,,,1.42 µM,45.8 nM,51.9 nM,1190 nM,
B18,,,,,188 nM,4.2 nM,1.4 nM,130 nM,4.4 nM
B19,,,,,659 nM,20 nM,,692 nM,11.3 nM
B20,,,,,5 nM,0.4 nM,0.2 nM,9.3 nM,1.4 nM
B21,,,,,19.5 nM,0.4 nM,,19.4 nM,1.4 nM
B22,,,,,155 nM,1 nM,1.6 nM,124 nM,5.9 nM
